In patent publication US20250043022A1 (JIANGSU HENGRUI PHARMACEUTICALS, published 2025):

biological target: T1, human PSMA on cells (Cho-hPSMA, CHO-K1 cells overexpressing full-length human PSMA) (human, UniProt Q04609 1-750); assay: cell ELISA (OD450), Cho-hPSMA cells
T1 construct: whole, on cells; also called cell surface PSMA; PSMA-expressing Lncap cells
Procedure: Experiment 2: Cells were cultured and inoculated onto a cell plate using the same method as in Experiment 1. The antibodies were serially diluted, and the antibody solutions were added to the cell plate at 100 μL/well. The plate was incubated at 4° C. for 1 h and then washed. An HRP-Goat Anti-human IgG (H+L) secondary antibody dilution (1:8000) was added to the cell plate at 100 μL/well, and the plate was incubated at 4° C. for 1 h and then washed by centrifugation. After color development with TMB, the reaction was stopped with 0.1 M sulfuric acid, and OD450 values were measured.

T1 sequence (Q04609 whole entry): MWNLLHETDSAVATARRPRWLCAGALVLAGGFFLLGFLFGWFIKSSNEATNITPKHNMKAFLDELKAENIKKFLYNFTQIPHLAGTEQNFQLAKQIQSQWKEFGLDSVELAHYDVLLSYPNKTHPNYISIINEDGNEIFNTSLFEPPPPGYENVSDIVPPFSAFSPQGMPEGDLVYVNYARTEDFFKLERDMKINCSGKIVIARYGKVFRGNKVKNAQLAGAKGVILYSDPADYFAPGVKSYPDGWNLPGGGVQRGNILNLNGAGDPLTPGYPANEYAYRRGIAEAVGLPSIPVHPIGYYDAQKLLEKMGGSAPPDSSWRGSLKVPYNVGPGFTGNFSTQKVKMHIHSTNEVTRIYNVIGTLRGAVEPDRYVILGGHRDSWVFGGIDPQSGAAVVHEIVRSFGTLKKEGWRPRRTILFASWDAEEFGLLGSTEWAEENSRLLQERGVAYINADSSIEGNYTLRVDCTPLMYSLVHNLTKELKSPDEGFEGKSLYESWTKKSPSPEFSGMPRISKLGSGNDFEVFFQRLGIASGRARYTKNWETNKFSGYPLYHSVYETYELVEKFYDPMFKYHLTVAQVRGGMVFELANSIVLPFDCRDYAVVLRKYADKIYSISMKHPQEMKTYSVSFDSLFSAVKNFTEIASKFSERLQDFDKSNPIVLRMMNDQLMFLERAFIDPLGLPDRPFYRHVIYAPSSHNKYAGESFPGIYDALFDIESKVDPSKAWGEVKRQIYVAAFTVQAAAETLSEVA

Binder	EC50 [µg/mL]
hu31H1L2 (antibody, human IgG1, kappa, V domains shown) VH: EVQLVESGGGLVQPGGSLRLSCAASGFTFSDYYMAWVRQAPGKGLEWVASINYDGSSTYYLDSLKSRFTISRDNAKNSLYLQMNSLRAEDTAVYYCAGSDGYWAWFAYWGQGTLVTVSS VL: DIQMTQSPSSLSASVGDRVTITCRASGNIHNYLAWYQQKPGKAPQLLVYNAETLADGVPSRFSGSGSGTDFTLTISSLQPEDFATYYCQHFWSTPPTFGGGTKVEIKR	0.12
hu31H1L3 (antibody, human IgG1, kappa, V domains shown) VH: EVQLVESGGGLVQPGGSLRLSCAASGFTFSDYYMAWVRQAPGKGLEWVASINYDGSSTYYLDSLKSRFTISRDNAKNSLYLQMNSLRAEDTAVYYCAGSDGYWAWFAYWGQGTLVTVSS VL: DIQMTQSPSSLSASVGDRVTITCRASGNIHNYLAWYQQKPGKSPQLLVYNAETLADGVPSRFSGSGSGTQFTLTISSLQPEDFATYYCQHFWSTPPTFGGGTKVEIKR	0.124
hu15H3L1 (antibody, human IgG1, kappa, V domains shown) VH: EFQLVQSGAEVKKPGASVKVSCKASGYSFTDHNMNWVRQAPGQRLEWMGLINPNYGTADYNQKFKGRVTITVDQSASTAYMELSSLRSEDTAVYYCARGSSLFAYWGQGTLVTVSS VL: DIQMTQSPSSLSASVGDRVTITCKASQGVDTAVAWYQQKPGKVPKLLIYWASTRHTGVPSRFSGSGSGTDFTLTISSLQPEDVATYYCQQYSRYPLTFGQGTKLEIKR	0.0731
hu15H2L1 (antibody, human IgG1, kappa, V domains shown) VH: EFQLVQSGAEVKKPGASVKVSCKASGYSFTDHNMNWVRQAPGQRLEWMGLINPNYGTADYNQKFKGRVTITRDTSASTAYMELSSLRSEDTAVYYCARGSSLFAYWGQGTLVTVSS VL: DIQMTQSPSSLSASVGDRVTITCKASQGVDTAVAWYQQKPGKVPKLLIYWASTRHTGVPSRFSGSGSGTDFTLTISSLQPEDVATYYCQQYSRYPLTFGQGTKLEIKR	0.0871
hu15H4L1 (antibody, human IgG1, kappa, V domains shown) VH: EFQLVQSGAEVKKPGASVKVSCKASGYSFTDHNMNWVRQAPGQRLEWMGLINPNYGTADYNQKFKGRVTLTVDQSATTAYMELSSLRSEDTAVYYCARGSSLFAYWGQGTLVTVSS VL: DIQMTQSPSSLSASVGDRVTITCKASQGVDTAVAWYQQKPGKVPKLLIYWASTRHTGVPSRFSGSGSGTDFTLTISSLQPEDVATYYCQQYSRYPLTFGQGTKLEIKR	0.069
hu15H1L2 (antibody, human IgG1, kappa, V domains shown) VH: EFQLVQSGAEVKKPGASVKVSCKASGYTFTDHNMNWVRQAPGQRLEWMGLINPNYGTADYNQKFKGRVTITRDTSASTAYMELSSLRSEDTAVYYCARGSSLFAYWGQGTLVTVSS VL: DIQMTQSPSSLSASVGDRVTITCKASQGVDTAVAWYQQKPGKSPKLLIYWASTRHTGVPDRFSGSGSGTDFTLTISSLQPEDVATYYCQQYSRYPLTFGQGTKLEIKR	0.075
hu41H1L2 (antibody, human IgG1, kappa, V domains shown) VH: EVQLVQSGAEVKKPGASVKVSCKASGYTFTSYGISWVRQAPGQGLEWMGEIFPRRGNTYYNEKFRGRVTMTTDKSTSTAYMELRSLRSDDTAVYYCARVFDGYYNYAMDYWGQGTTVTVSS VL: DIQMTQSPSSLSASVGDRVTITCRASQDIGSSLNWLQQKPGKAIKRLIYATSSLDSGVPSRFSGSRSGTDYTLTISSLQPEDFATYYCLQYASSPYTFGGGTKVEIKR	0.982
hu41H2L3 (antibody, human IgG1, kappa, V domains shown) VH: EVQLVQSGAEVKKPGASVKVSCKASGYTFTSYGISWVRQAPGQGLEWMGEIFPRRGNTYYNEKFRGRVTLTADKSTSTAYMELRSLRSDDTAVYYCARVFDGYYNYAMDYWGQGTTVTVSS VL: DIQMTQSPSSLSASVGDRVTITCRASQDIGSSLNWLQQKPGGAIKRLIYATSSLDSGVPSRFSGSRSGSDYTLTISSLQPEDFATYYCLQYASSPYTFGGGTKVEIKR	1.21
hu41H1L1 (antibody, human IgG1, kappa, V domains shown) VH: EVQLVQSGAEVKKPGASVKVSCKASGYTFTSYGISWVRQAPGQGLEWMGEIFPRRGNTYYNEKFRGRVTMTTDKSTSTAYMELRSLRSDDTAVYYCARVFDGYYNYAMDYWGQGTTVTVSS VL: DIQMTQSPSSLSASVGDRVTITCRASQDIGSSLNWLQQKPGKAPKRLIYATSSLDSGVPSRFSGSRSGTDFTLTISSLQPEDFATYYCLQYASSPYTFGGGTKVEIKR	1.08
hu43H2L1 (antibody, human IgG1, kappa, V domains shown) VH: EVQFVESGGGLVQPGGSLRLSCAASGFTFSNYWMNWVRQAPGKGLEWVAQVRLKSDNYATHYAESVKGRFTISREDAKNSAYLQMNSLRAEDTAVYYCSENYYGPAGPFDFWGQGTTVTVSS VL: DIQMTQSPSSVSASVGDRVTITCKASQNVHTSVAWYQQKPGKSPKLLIYSASNRYSGVPSRFSGSGSGTDFTLTISSLQPEDFATYYCQQYSSYPLTFGQGTKLEIKR	6.17
hu43H1L1 (antibody, human IgG1, kappa, V domains shown) VH: EVQFVESGGGLVQPGGSLRLSCAASGFTFSNYWMNWVRQAPGKGLEWVAQVRLKSDNYATHYAESVKGRFTISRDNAKNSAYLQMNSLRAEDTAVYYCSENYYGPAGPFDFWGQGTTVTVSS VL: DIQMTQSPSSVSASVGDRVTITCKASQNVHTSVAWYQQKPGKSPKLLIYSASNRYSGVPSRFSGSGSGTDFTLTISSLQPEDFATYYCQQYSSYPLTFGQGTKLEIKR	6.22

Continued, values first:

EC50 [µg/mL]	Binder
0.0821	hu15H3L2 (antibody, human IgG1, kappa, V domains shown) VH: EFQLVQSGAEVKKPGASVKVSCKASGYSFTDHNMNWVRQAPGQRLEWMGLINPNYGTADYNQKFKGRVTITVDQSASTAYMELSSLRSEDTAVYYCARGSSLFAYWGQGTLVTVSS VL: DIQMTQSPSSLSASVGDRVTITCKASQGVDTAVAWYQQKPGKSPKLLIYWASTRHTGVPDRFSGSGSGTDFTLTISSLQPEDVATYYCQQYSRYPLTFGQGTKLEIKR
0.0683	hu15H1L1 (antibody, human IgG1, kappa, V domains shown) VH: EFQLVQSGAEVKKPGASVKVSCKASGYTFTDHNMNWVRQAPGQRLEWMGLINPNYGTADYNQKFKGRVTITRDTSASTAYMELSSLRSEDTAVYYCARGSSLFAYWGQGTLVTVSS VL: DIQMTQSPSSLSASVGDRVTITCKASQGVDTAVAWYQQKPGKVPKLLIYWASTRHTGVPSRFSGSGSGTDFTLTISSLQPEDVATYYCQQYSRYPLTFGQGTKLEIKR
0.0818	hu15H5L2 (antibody, human IgG1, kappa, V domains shown) VH: EFQLVQSGAEVKKPGASVKVSCKASGYSFTDHNMNWVRQAPGQRLEWIGLINPNYGTADYNQKFKGRATLTVDQSATTAYMELSSLRSEDTAVYYCARGSSLFAYWGQGTLVTVSS VL: DIQMTQSPSSLSASVGDRVTITCKASQGVDTAVAWYQQKPGKSPKLLIYWASTRHTGVPDRFSGSGSGTDFTLTISSLQPEDVATYYCQQYSRYPLTFGQGTKLEIKR
0.0847	hu15H5L1 (antibody, human IgG1, kappa, V domains shown) VH: EFQLVQSGAEVKKPGASVKVSCKASGYSFTDHNMNWVRQAPGQRLEWIGLINPNYGTADYNQKFKGRATLTVDQSATTAYMELSSLRSEDTAVYYCARGSSLFAYWGQGTLVTVSS VL: DIQMTQSPSSLSASVGDRVTITCKASQGVDTAVAWYQQKPGKVPKLLIYWASTRHTGVPSRFSGSGSGTDFTLTISSLQPEDVATYYCQQYSRYPLTFGQGTKLEIKR
0.0874	hu15H2L2 (antibody, human IgG1, kappa, V domains shown) VH: EFQLVQSGAEVKKPGASVKVSCKASGYSFTDHNMNWVRQAPGQRLEWMGLINPNYGTADYNQKFKGRVTITRDTSASTAYMELSSLRSEDTAVYYCARGSSLFAYWGQGTLVTVSS VL: DIQMTQSPSSLSASVGDRVTITCKASQGVDTAVAWYQQKPGKSPKLLIYWASTRHTGVPDRFSGSGSGTDFTLTISSLQPEDVATYYCQQYSRYPLTFGQGTKLEIKR
1.22	hu41H2L1 (antibody, human IgG1, kappa, V domains shown) VH: EVQLVQSGAEVKKPGASVKVSCKASGYTFTSYGISWVRQAPGQGLEWMGEIFPRRGNTYYNEKFRGRVTLTADKSTSTAYMELRSLRSDDTAVYYCARVFDGYYNYAMDYWGQGTTVTVSS VL: DIQMTQSPSSLSASVGDRVTITCRASQDIGSSLNWLQQKPGKAPKRLIYATSSLDSGVPSRFSGSRSGTDFTLTISSLQPEDFATYYCLQYASSPYTFGGGTKVEIKR
0.985	hu41H1L3 (antibody, human IgG1, kappa, V domains shown) VH: EVQLVQSGAEVKKPGASVKVSCKASGYTFTSYGISWVRQAPGQGLEWMGEIFPRRGNTYYNEKFRGRVTMTTDKSTSTAYMELRSLRSDDTAVYYCARVFDGYYNYAMDYWGQGTTVTVSS VL: DIQMTQSPSSLSASVGDRVTITCRASQDIGSSLNWLQQKPGGAIKRLIYATSSLDSGVPSRFSGSRSGSDYTLTISSLQPEDFATYYCLQYASSPYTFGGGTKVEIKR
0.0813	hu46H1L2 (antibody, human IgG1, kappa, V domains shown) VH: EVQLVESGGGLVKPGGSLRLSCAASGFTFSNYGMSWVRQAPGKGLEWVSTIGSGGGYTYYSDSVKGRFTISRDNAKNSLYLQMNSLRAEDTAVYYCARHPQIGYWGQGTLVTVSS VL: DIQMTQSPSSLSASVGDRVTITCKASQSVGTAVAWYQQKPGKAPKLLIYSASSRYTGVPSRFSGSGSGTDFTLTISSLQPEDFADYFCHQYSSYPLTFGGGTKVEIKR
2.83	hu43H3L1 (antibody, human IgG1, kappa, V domains shown) VH: EVQFVESGGGLVQPGGSLRLSCAASGFTFSNYWMNWLRQAPGKGLEWVAQVRLKSDNYATHYAESVKGRFTISREDAKNSAYLQMNSLRAEDTAVYYCSENYYGPAGPFDFWGQGTTVTVSS VL: DIQMTQSPSSVSASVGDRVTITCKASQNVHTSVAWYQQKPGKSPKLLIYSASNRYSGVPSRFSGSGSGTDFTLTISSLQPEDFATYYCQQYSSYPLTFGQGTKLEIKR
0.136	hu46H1L1 (antibody, human IgG1, kappa, V domains shown) VH: EVQLVESGGGLVKPGGSLRLSCAASGFTFSNYGMSWVRQAPGKGLEWVSTIGSGGGYTYYSDSVKGRFTISRDNAKNSLYLQMNSLRAEDTAVYYCARHPQIGYWGQGTLVTVSS VL: DIQMTQSPSSLSASVGDRVTITCKASQSVGTAVAWYQQKPGKAPKLLIYSASSRYTGVPSRFSGSGSGTDFTLTISSLQPEDFATYYCHQYSSYPLTFGGGTKVEIKR
